From publication doi:10.1101/2024.06.13.598777, “Acetylation of the yeast Hsp40 chaperone protein Ydj1 fine-tunes proteostasis and translational fidelity” (bioRxiv, 2024)
Residue numbers refer to the chain shown, from its start. Numbers in names are those of the source.

B1: His-tagged Ydj1 wild-type, biotinylated (natural protein, yeast, UniProt P25491 1-409, looked up)
chain: MVKETKFYDILGVPVTATDVEIKKAYRKCALKYHPDKNPSEEAAEKFKEASAAYEILSDPEKRDIYDQFGEDGLSGAGGAGGFPGGGFGFGDDIFSQFFGAGGAQRPRGPQRGKDIKHEISASLEELYKGRTAKLALNKQILCKECEGRGGKKGAVKKCTSCNGQGIKFVTRQMGPMIQRFQTECDVCHGTGDIIDPKDRCKSCNGKKVENERKILEVHVEPGMKDGQRIVFKGEADQAPDVIPGDVVFIVSERPHKSFKRDGDDLVYEAEIDLLTAIAGGEFALEHVSGDWLKVGIVPGEVIAPGMRKVIEGKGMPIPKYGGYGNLIIKFTIKFPENHFTSEENLKKLEEILPPRIVPAIPKKATVDECVLADFDPAKYNRTRASRGGANYDSDEEEQGGEGVQCASQ
modifications: biotin (labeled with a 1.5-fold excess of NHS-PEG4-Biotin)
notes: Ydj1, yeast Hsp40; YDJ1 gene PCR amplified from yeast genomic DNA into pRSETA; A fragment lacking the J-domain (delta J) co-purifies with the recombinant protein; also called Ydj1-biotin; HIS-Ydj1; source: E. coli Rosetta (DE3), purified (Ni-sepharose, Superdex 200)
B2: His-tagged Ydj1 K23R, biotinylated (natural protein, yeast, UniProt P25491 1-409, looked up)
chain: B1 chain with K23R
modifications: biotin (labeled with a 1.5-fold excess of NHS-PEG4-Biotin)
notes: Same construct as m5 with the mutation; source: E. coli Rosetta (DE3), purified (Ni-sepharose, Superdex 200)
B3: His-tagged Ydj1 K23Q, biotinylated (natural protein, yeast, UniProt P25491 1-409, looked up)
chain: B1 chain with K23Q
modifications: biotin (labeled with a 1.5-fold excess of NHS-PEG4-Biotin)
notes: Ydj1, yeast Hsp40, acetyl-mimic mutant; Same construct as m5 with the mutation; source: E. coli Rosetta (DE3), purified (Ni-sepharose, Superdex 200)
B4: His-tagged Ydj1 K37R, biotinylated (natural protein, yeast, UniProt P25491 1-409, looked up)
chain: B1 chain with K37R
modifications: biotin (labeled with a 1.5-fold excess of NHS-PEG4-Biotin)
notes: as for B2

These binders were tested against T1, Ssa1 (purified) (yeast, UniProt P10591 1-642) (assay: BLI; Ydj1-biotin (5 ug/ml) on streptavidin biosensors, Ssa1 1 uM in solution, 23 °C, 25 mM Hepes pH 7.5, 50 mM KCl, 2 mM DTT, 5 mM MgCl2, 0.5 mM ATP, 0.02% Tween-20; Octet R4; reference sensor subtracted). Details: both partners purified.
T1 construct: Ssa1, yeast Hsp70; also called Hsp70; source: isolated as previously described [51]
T1 sequence (P10591 whole entry): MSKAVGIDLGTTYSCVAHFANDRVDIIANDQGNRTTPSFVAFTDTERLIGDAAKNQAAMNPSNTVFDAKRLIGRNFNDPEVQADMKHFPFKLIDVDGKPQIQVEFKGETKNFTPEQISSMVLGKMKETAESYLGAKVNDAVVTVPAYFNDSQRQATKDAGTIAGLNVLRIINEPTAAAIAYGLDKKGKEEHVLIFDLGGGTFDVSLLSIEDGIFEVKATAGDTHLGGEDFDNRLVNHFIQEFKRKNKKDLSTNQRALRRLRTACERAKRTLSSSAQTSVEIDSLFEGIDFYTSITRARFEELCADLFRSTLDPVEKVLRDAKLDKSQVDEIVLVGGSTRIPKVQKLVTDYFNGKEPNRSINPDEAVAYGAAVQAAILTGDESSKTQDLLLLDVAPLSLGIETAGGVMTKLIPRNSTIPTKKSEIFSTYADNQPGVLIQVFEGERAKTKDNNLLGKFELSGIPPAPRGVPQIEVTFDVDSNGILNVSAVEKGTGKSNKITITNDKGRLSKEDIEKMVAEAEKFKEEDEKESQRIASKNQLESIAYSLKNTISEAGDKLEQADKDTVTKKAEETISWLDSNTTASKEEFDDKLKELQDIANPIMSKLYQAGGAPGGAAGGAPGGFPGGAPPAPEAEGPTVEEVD

Row | Binder | binding result
1 | B1 | binds
2 | B2 | binds
3 | B3 | binds
4 | B4 | binds
